In patent publication US8697386B2, “Methods and compositions for modulating hepsin activation of macrophage-stimulating protein” (Genentech, Inc., priority 2009, dated 2014):
Entries after “also recorded” stand apart in the source; their conditions may differ. Blank lines part the entries; values can stand above or below the molecule they belong to.

Tests used:
[1] = molecular target: T1, human Ron (Homo sapiens, UniProt Q04912); experiment: Binding to Ron by surface plasmon resonance (BIAcore); details: SPR; for detectable binding to Ron: up to a concentration of 1 μM
T1 construct: the Ron (Sema IPT1)-IgG fusion protein was captured
T1 sequence (Q04912 25-683 limits assumed): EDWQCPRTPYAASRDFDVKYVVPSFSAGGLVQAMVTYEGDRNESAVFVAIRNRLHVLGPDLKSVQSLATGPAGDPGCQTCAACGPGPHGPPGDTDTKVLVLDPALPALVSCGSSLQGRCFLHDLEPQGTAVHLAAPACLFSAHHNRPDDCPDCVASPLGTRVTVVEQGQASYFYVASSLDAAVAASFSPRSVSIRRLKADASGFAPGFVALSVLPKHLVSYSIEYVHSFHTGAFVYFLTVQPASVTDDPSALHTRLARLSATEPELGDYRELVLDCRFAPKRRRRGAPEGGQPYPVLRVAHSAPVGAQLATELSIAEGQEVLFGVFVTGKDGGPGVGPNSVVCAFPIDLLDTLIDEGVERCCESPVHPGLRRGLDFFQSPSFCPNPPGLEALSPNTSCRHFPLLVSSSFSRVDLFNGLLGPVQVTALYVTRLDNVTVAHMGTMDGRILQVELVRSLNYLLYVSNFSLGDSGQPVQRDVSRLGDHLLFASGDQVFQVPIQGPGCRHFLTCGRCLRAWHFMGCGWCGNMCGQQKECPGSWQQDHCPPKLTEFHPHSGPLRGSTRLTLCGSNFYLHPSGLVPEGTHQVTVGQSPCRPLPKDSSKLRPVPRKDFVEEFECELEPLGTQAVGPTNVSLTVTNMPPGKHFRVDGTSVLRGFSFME
Experimental: Binding of hepsin-activated pro-MSP to Ron by surface plasmon resonance and ELISA: To determine binding affinity of hepsin-activated MSP to human Ron, surface plasmon resonance measurements on a BIAcore™-3000 instrument (GE Health Care, NJ) were performed. Rabbit anti-human IgG were chemically immobilized (amine coupling) on CM5 biosensor chips and the Ron (Sema IPT1)-IgG fusion protein was captured to give approximately 250 response units (RU). For kinetics measurements, different concentration of either hepsin-activated MSP or a commercially available MSP (R&D systems) were injected in HBS-P buffer at 25° C. with a flow rate of 30 μl/min. Association rates (kon) and dissociation rates (koff) were obtained by using a simple one-to-one Langmuir binding model (BIA-Evaluation) and the equilibrium dissociation constants (KD) were calculated (koff/kon). For ELISA experiments, maxiSorp microtiter plates (Nunc, Roskilde, Denmark) were coated overnight at 4° C. with 2 μg/ml of rabbit anti-human IgG Fc specific antibody (Jackson ImmunoResearch Laboratory, West Grove, Pa.) in 50 mM sodium carbonate buffer, pH 9.6. After blocking with assay buffer (PBS pH 7.4, 0.5% BSA and 0.05% Tween-20, 15 PPM Proclin), 1 μg/ml Ron (Sema IPT1)-IgG fusion protein was added and plates were incubated for 1 hour with gentle shaking at room temperature. After washing with wash buffer (PBS, 0.05% polysorbate 20), His tagged MSP proteins were added for 1 hour. Bound MSP was detected using anti-His-HRP (Qiagen, Valencia, Calif.) followed by addition of TMB/H2O2 substrate (KPL, Gaithersburg, Md.). The reaction was stopped with 1M H3PO4 and the A450 was measured on a Molecular Devices (Sunnyvale, Calif.) SpectraMax Plus^384 microplate reader. The effective concentration to give half-maximal binding (EC50) was determined by a four parameter fit using Kaleidagraph (Synergy Software, Reading, Pa.).

[2] = molecular target: T2, hepsin (Homo sapiens, UniProt P05981); experiment: In vitro activation of pro-MSP by recombinant hepsin (SDS-PAGE); type: biochemical; details: 25 μg/ml substrate, hepsin 1.25-10 nM, 37° C., SDS-PAGE reducing; mutant up to 24 hours
T2 construct: The extracellular domain of the human recombinant hepsin was expressed and purified as described; made in house
T2 sequence (P05981 45-417 limits assumed): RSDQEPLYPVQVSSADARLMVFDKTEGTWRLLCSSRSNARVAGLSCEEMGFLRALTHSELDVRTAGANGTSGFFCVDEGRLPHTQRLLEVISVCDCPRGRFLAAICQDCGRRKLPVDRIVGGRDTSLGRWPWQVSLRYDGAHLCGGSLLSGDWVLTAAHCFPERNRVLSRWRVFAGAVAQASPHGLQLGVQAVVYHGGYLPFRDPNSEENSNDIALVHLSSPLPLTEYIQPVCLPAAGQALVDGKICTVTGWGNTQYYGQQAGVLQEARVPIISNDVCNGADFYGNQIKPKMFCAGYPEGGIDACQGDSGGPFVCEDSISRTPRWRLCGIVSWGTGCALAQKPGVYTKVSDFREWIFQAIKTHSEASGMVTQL
Experimental: Analysis of in vitro activation of pro-msp by hepsin using sds-page: Pro-MSP (25 μg/ml) was incubated with different concentrations of hepsin (1.25 nM, 2.5 nM, 5 nM and 10 nM) in a buffer containing 50 mM Tris-HCl pH 8.0, 150 mM NaCl, 0.05% Triton-X100 and 2 mM CaCl2 at 37° C. Aliquots of the reaction mixture at different time points were mixed 6×-SDS sample buffer and the samples were boiled for 5 minutes at 95° C. and separated by SDS-PAGE using a 4-20% gradient gel. Protein was visualized after staining with SimplyBlue Safe Stain (Invitrogen, Carlsbad, Calif.). Similar experiments were performed with the pro-MSP that was mutated to render it uncleavable at Arg483-Val484(pro-MSP-R483E) to assess if proteolytic cleavage site occurs at a different site apart from the expected Arg483-Val484 bond in pro-MSP.

[3] = test system: Ron signaling pathway; experiment: Immunoblot for phosphorylated downstream kinases in A2780 cells overexpressing human Ron; type: cell-based; details: pro-MSP 10 and 50 ng/ml, 10 nM hepsin, 1 hour
Experimental: Immunoblot for the detection of phosphorylated kinases: A human ovarian carcinoma cell line (A2780) overexpressing human Ron was used to study the phosphorylation of Ron and other downstream kinase. Cells at a density of 2×10^5 cells/well were cultured in 12-well plate and serum-starved for 24 hours. The cells were then stimulated with either pro-MSP (10 and 50 ng/ml) alone or in presence of 10 nM Hepsin for 1 hour. Mature MSP from a commercial source and hepsin were used as controls. Samples were prepared by washing cells twice with cold PBS followed by addition of 200 ul lysis buffer. Samples were then analyzed by SDS/PAGE on 4-12% Tris-glycine gels (Invitrogen, Carlsbad, Calif.). Proteins were transferred onto nitrocellulose membranes and subsequently treated with anti-Ron antibody or anti-phospho-AKT antibody or anti-phospho-MAPK antibody or anti-phospho-S6 antibody, overnight at 4° C. After washing, membranes were incubated with IRDye800-conjugated goat anti-mouse IgG (Rockland, Gilbertsville, Pa.) and AlexaFluor 680 goat anti-rabbit IgG (Invitrogen) for 1 h. Proteins were detected with the Odyssey Infrared Imaging System (LI-COR Biosciences, Lincoln, Nebr.).

[4] = test system: bone marrow macrophages; experiment: Inhibition of nitric oxide (NO) synthesis in bone marrow macrophages; type: cell-based, mouse; details: MSP/pro-MSP 10 ng/ml, hepsin 1 nM, 24 hours, Griess reaction
Experimental: Inhibition of NO synthesis by mature MSP: Bone marrow cells obtained from collected mouse femurs were pipetted to a single-cell suspension and then spun down. Red blood cells were lysed by incubation with erythrocyte lysis buffer for 5 minutes at room temperature. Cells were then suspended in macrophage differentiation medium (DMEM with glutamine containing 10% FBS, Pen/Strep and 50 ng/ml recombinant mCSF-1). Cells were then plated onto sterile 24-well non-tissue culture dishes. Medium was changed the next day and subsequently every 2 days. After 6 days in culture, the macrophages were mature and these mature cells were washed in serum-free DMEM and further incubated for 2 hours. Different reactions (total volume 300 μL) as indicated in the figure consisting of recombinant MSP (10 ng/ml), pro-MSP (10 ng/ml), hepsin (1 nM) and Fab25 (500 nM) were added to the respective wells and cultured for 24 hours at 37° C. in a tissue culture incubator. NO production was quantified using Griess reaction (Molecular Probes) according to manufacturer's recommendation.

B1: pro-MSP: inactive single-chain precursor of MSP; recombinant human MSP with C672A mutation expressed in Chinese Hamster Ovary cells (protein, listed as Homo sapiens)
chain: MGWLPLLLLLTQCLGVPGQRSPLNDFQVLRGTELQHLLHAVVPGPWQEDVADAEECAGRCGPLMDCRAFHYNVSSHGCQLLPWTQHSPHTRLRRSGRCDLFQKKDYVRTCIMNNGVGYRGTMATTVGGLPCQAWSHKFPNDHKYTPTLRNGLEENFCRNPDGDPGGPWCYTTDPAVRFQSCGIKSCREAACVWCNGEEYRGAVDRTESGRECQRWDLQHPHQHPFEPGKFLDQGLDDNYCRNPDGSERPWCYTTDPQIEREFCDLPRCGSEAQPRQEATTVSCFRGKGEGYRGTANTTTAGVPCQRWDAQIPHQHRFTPEKYACKDLRENFCRNPDGSEAPWCFTLRPGMRAAFCYQIRRCTDDVRPQDCYHGAGEQYRGTVSKTRKGVQCQRWSAETPHKPQFTFTSEPHAQLEENFCRNPDGDSHGPWCYTMDPRTPFDYCALRRCADDQPPSILDPPDQVQFEKCGKRVDRLDQRRSKLRVVGGHPGNSPWTVSLRNRQGQHFCGGSLVKEQWILTARQCFSSCHMPLTGYEVWLGTLFQNPQHGEPSLQRVPVAKMVCGPSGSQLVLLKLERSVTLNQRVALICLPPEWYVVPPGTKCEIAGWGETKGTGNDTVLNVALLNVISNQECNIKHRGRVRESEMCTEGLLAPVGACEGDYGGPLACFTHNAWVLEGIIIPNRVCARSRWPAVFTRVSVFVDWIHKVMRLG
detectable binding to Ron [1]: Neither pro-MSP nor the cleavage site mutant (pro-MSP-R483E) had any detectable binding; also recorded: No detectable binding
proteolytic cleavage/activation by hepsin [2]: activated pro-MSP in a dose-dependent and time dependent manner
phosphorylation of MAP kinase and S6 kinase (activation of Ron signaling pathway) [3]: Neither hepsin nor pro-MSP alone was effective
effect on NO production in response to LPS [4]: did not inhibit

proteolytic cleavage/activation by hepsin [2]: did not cleave
B2: pro-MSP-R483E: pro-MSP mutated to render it uncleavable at Arg483-Val484 (protein)
chain: QRSPLNDFQVLRGTELQHLLHAVVPGPWQEDVADAEECAGRCGPLMDCRAFHYNVSSHGCQLLPWTQHSPHTRLRRSGRCDLFQKKDYVRTCIMNNGVGYRGTMATTVGGLPCQAWSHKFPNDHKYTPTLRNGLEENFCRNPDGDPGGPWCYTTDPAVRFQSCGIKSCREAACVWCNGEEYRGAVDRTESGRECQRWDLQHPHQHPFEPGKFLDQGLDDNYCRNPDGSERPWCYTTDPQIEREFCDLPRCGSEAQPRQEATTVSCFRGKGEGYRGTANTTTAGVPCQRWDAQIPHQHRFTPEKYACKDLRENFCRNPDGSEAPWCFTLRPGMRAAFCYQIRRCTDDVRPQDCYHGAGEQYRGTVSKTRKGVQCQRWSAETPHKPQFTFTSEPHAQLEENFCRNPDGDSHGPWCYTMDPRTPFDYCALRRCADDQPPSILDPPDQVQFEKCGKRVDRLDQRRSKLEVVGGHPGNSPWTVSLRNRQGQHFCGGSLVKEQWILTARQCFSSCHMPLTGYEVWLGTLFQNPQHGEPSLQRVPVAKMVCGPSGSQLVLLKLERSVTLNQRVALICLPPEWYVVPPGTKCEIAGWGETKGTGNDTVLNVALLNVISNQECNIKHRGRVRESEMCTEGLLAPVGACEGDYGGPLACFTHNAWVLEGIIIPNRVCARSRWPAVFTRVSVFVDWIHKVMRLG
detectable binding to Ron [1]: Neither pro-MSP nor the cleavage site mutant (pro-MSP-R483E) had any detectable binding

Kd ([1]; Ron-Fc captured on CM5 chip, 1:1 binding model, 25° C., read-out: KD, binding affinity to Ron): 4.4 nM
B3: commercially available MSP: recombinant active form of human MSP (R&D Systems) (protein)
chain 1: QRSPLNDFQVLRGTELQHLLHAVVPGPWQEDVADAEECAGRCGPLMDCRAFHYNVSSHGCQLLPWTQHSPHTRLRRSGRCDLFQKKDYVRTCIMNNGVGYRGTMATTVGGLPCQAWSHKFPNDHKYTPTLRNGLEENFCRNPDGDPGGPWCYTTDPAVRFQSCGIKSCREAACVWCNGEEYRGAVDRTESGRECQRWDLQHPHQHPFEPGKFLDQGLDDNYCRNPDGSERPWCYTTDPQIEREFCDLPRCGSEAQPRQEATTVSCFRGKGEGYRGTANTTTAGVPCQRWDAQIPHQHRFTPEKYACKDLRENFCRNPDGSEAPWCFTLRPGMRAAFCYQIRRCTDDVRPQDCYHGAGEQYRGTVSKTRKGVQCQRWSAETPHKPQFTFTSEPHAQLEENFCRNPDGDSHGPWCYTMDPRTPFDYCALRRCADDQPPSILDPPDQVQFEKCGKRVDRLDQRRSKLR
chain 2: VVGGHPGNSPWTVSLRNRQGQHFCGGSLVKEQWILTARQCFSSCHMPLTGYEVWLGTLFQNPQHGEPSLQRVPVAKMVCGPSGSQLVLLKLERSVTLNQRVALICLPPEWYVVPPGTKCEIAGWGETKGTGNDTVLNVALLNVISNQECNIKHRGRVRESEMCTEGLLAPVGACEGDYGGPLACFTHNCWVLEGIIIPNRVCARSRWPAVFTRVSVFVDWIHKVMRLG
